Biological target: the molecule itself

B1: NgDapB (4-hydroxy-tetrahydrodipicolinate reductase from Neisseria gonorrhoeae) (enzyme, UniProt B4RR35 1-269, looked up)
chain: MIPLKIAIAGANGRMGRVLVEAVNNHPDTVLSGALEHSGSEALGLDAGYAVGLKTGIAISDDVDAVLAQSDVLIDFTRPEPTLKHLQKCVEKQVNIIIGTTGFDDAGKAAIRAAAEKTGIVFAANFSVGVNLTFHILDTVARVLNEGYDIEIIEGHHRHKVDAPSGTALRMGEVIAGALGRDLKQCAVYGREGHTGPRDPSTIGFATVRAGDIVGDHTALFATDGERVEITHKAGSRMTFAAGAVRAAVWVNGKTGLYDMQDVLGLNNR
In the case of B1, the “stoichiometry N” value is reported as 4.
